The values that follow come from patent US20180155451A1 (published 2018).

Residue numbers refer to the chain shown, from its start.

For experiment [1], the target named is T1, FcγRIa extracellular domain with C-terminal His tag (human, UniProt P12314 16-292).
T1 construct: extracellular domain; also called FcgRI; FcgRIa; not shown: His tag at the C terminus
Kind of experiment: SPR (Biacore), antibody captured on chip, soluble FcgR as analyte; experiment 2. As for the experimental part:
(§1) Antibodies of interest were analyzed for the interaction to FcgR according to the method described in Reference Example 8.
(§2) Analysis of interaction between obj ective antibody and the FcγR was carried out using Biacore T100 (GE Healthcare), Biacore T200, Biacore A100, and Biacore 4000. HBS-EP+ (GE Healthcare) was used as the running buffer, and the measurement temperature was set to 25° C. Chips produced by immobilizing the antigen peptide by the amine coupling method to a Series S sensor Chip CM5 (GE Healthcare), chips produced by allowing preliminarily biotinylated antigen peptides to interact with and immobilize onto a Series S Sensor Chip SA (certified) (GE Healthcare), chips produced by immobilizing Protein L (ACTIGEN, BioVision) to Series S Sencor Chip CM5 (GE Healthcare), or chips produced by immobilizing Protein A/G (Thermo Scientific) to Series S Sencor Chip CM5 (GE Healthcare) were used. Antibodies of interest were captured onto these chips, and allowed to interact to each FcγR diluted with running buffer. To regenerate and repeatedly use the chip, the antibodies captured onto the chip were washed off by reacting 10 mM glycine-HCl, pH 1.5.

Experiment [2] addresses T2, FcγRIIa R type extracellular domain with C-terminal His tag (human, UniProt P12318 34-217).
T2 construct: extracellular domain; also called FcgRIIa R; FcgRIIaR; not shown: His tag at the C terminus
T2 sequence (looked up): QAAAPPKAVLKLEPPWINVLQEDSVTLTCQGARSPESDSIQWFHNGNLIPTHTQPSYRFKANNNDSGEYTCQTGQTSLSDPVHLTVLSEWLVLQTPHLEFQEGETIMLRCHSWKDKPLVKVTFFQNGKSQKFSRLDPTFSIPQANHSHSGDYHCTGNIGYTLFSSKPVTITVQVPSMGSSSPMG
The experiment is described as above. The procedure: as §1, §2

Experiment [3] deals with T3, FcγRIIa H type extracellular domain with C-terminal His tag (human, UniProt P12318 34-217).
T3 construct: extracellular domain; also called FcgRIIa H; FcgRIIaH; not shown: His tag at the C terminus
T3 sequence (looked up): T2 sequence (looked up) with R134H
Described as above. The procedure:
as §1, §2

Experiment [4] deals with T4, FcγRIIb extracellular domain with C-terminal His tag (human, UniProt P31994 43-217).
T4 construct: extracellular domain; also called FcgRIIb; 2b; not shown: His tag at the C terminus
T4 sequence (looked up): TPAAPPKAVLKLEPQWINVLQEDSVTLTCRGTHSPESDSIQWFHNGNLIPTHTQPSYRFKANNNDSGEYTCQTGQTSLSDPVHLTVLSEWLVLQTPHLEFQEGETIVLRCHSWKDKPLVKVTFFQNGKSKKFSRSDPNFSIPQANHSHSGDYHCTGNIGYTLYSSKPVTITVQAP
Described as above. As for the experimental part: as §1, §2

The target of experiment [5] is T5, FcγRIIIa F type extracellular domain with C-terminal His tag (human, UniProt P08637 17-208).
T5 construct: extracellular domain; also called FcgRIIIa F; FcgRIIIaF; not shown: His tag at the C terminus
T5 sequence (P08637 17-208): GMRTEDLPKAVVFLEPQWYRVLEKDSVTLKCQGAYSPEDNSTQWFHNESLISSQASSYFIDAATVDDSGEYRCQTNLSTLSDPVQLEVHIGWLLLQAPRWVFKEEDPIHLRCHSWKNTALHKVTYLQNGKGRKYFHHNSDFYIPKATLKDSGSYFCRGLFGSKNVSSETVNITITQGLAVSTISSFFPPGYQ
Described as above. The procedure:
as §1, §2

Experiment [6] addresses T6, FcγRIIIa V type extracellular domain with C-terminal His tag (human, UniProt P08637 17-208).
T6 construct: extracellular domain; also called FcgRIIIa V; FcgRIIIaV; not shown: His tag at the C terminus
The experiment is described as above. The procedure: as §1, §2

Experiment [7] deals with T1, FcγRIa extracellular domain with …. Kind of experiment: SPR (Biacore), antibody captured on chip, soluble FcgR as analyte; experiment 1. The procedure: as §1, §2
Experiment [8] concerns the target T2, FcγRIIa R type extracellular domain …. The experiment is described as above. The procedure:
as §1, §2

Experiment [9] deals with T3, FcγRIIa H type extracellular domain …. The description is as above. As for the experimental part: as §1, §2
The target in experiment [10] is T4, FcγRIIb extracellular domain with …. Described as above. As for the experimental part:
as §1, §2

For experiment [11], the target named is T5, FcγRIIIa F type extracellular domain …. The description is as above. As for the experimental part: as §1, §2
Experiment [12] addresses T6, FcγRIIIa V type extracellular domain …. The experiment is described as above. As for the experimental part: as §1, §2

T1 sequence (P12314 16-292): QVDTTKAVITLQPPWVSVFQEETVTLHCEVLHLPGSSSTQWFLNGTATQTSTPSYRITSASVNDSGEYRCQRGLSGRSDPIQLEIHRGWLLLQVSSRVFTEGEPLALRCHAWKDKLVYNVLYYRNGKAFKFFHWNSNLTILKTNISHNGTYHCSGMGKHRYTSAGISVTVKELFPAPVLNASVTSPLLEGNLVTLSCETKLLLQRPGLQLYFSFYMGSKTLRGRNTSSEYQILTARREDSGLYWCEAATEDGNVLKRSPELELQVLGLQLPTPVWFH
T6 sequence (P08637 17-208 F176V): as the sequence (P08637 17-208) above, with F160V counted along it

B1: H240-FA009/H240-FB001/L73-k0 (antibody, human IgG1, kappa)
heavy 1: QDQLVQSGAEVKKPGASVKVSCKASGFNIKDTYIQWVRQAPGQGLEWMGRIDPLRKQTKYREKFEGRVTITADTSTNTAYMELSSLRSEDTAVYYCVRSGREFDYWGQGTLVTVSSASTKGPSVFPLAPSSKSTSGGTAALGCLVKDYFPEPVTVSWNSGALTSGVHTFPAVLQSSGLYSLSSVVTVPSSSLGTKTYICNVNHKPSNTKVDKKVEPKSCDKTHTCPPCPAPEYYWGPSVFLFPPKPKDTLMISRTPEVTCVVVDVSDEEPEVKFNWYVDGVEVHNAKTKPREEQYNATYRVVSVLTVLHQDWLNGKEYKCKVSNKALPAPIEKTISKAKGQPREPQVYTLPPSRKEMTKNQVSLTCLVKGFYPSDIAVEWESNGQPENNYKTTPPVLDSDGSFFLYSKLTVDKSRWQQGNVFSCSVMHEALHNRYTQKSLSLSP
heavy 2: QDQLVQSGAEVKKPGASVKVSCKASGFNIKDTYIQWVRQAPGQGLEWMGRIDPLRKQTKYREKFEGRVTITADTSTNTAYMELSSLRSEDTAVYYCVRSGREFDYWGQGTLVTVSSASTKGPSVFPLAPSSKSTSGGTAALGCLVKDYFPEPVTVSWNSGALTSGVHTFPAVLQSSGLYSLSSVVTVPSSSLGTQTYICNVNHKPSNTKVDKKVEPKSCDKTHTCPPCPAPELLGGPSVFLFPPKPKDTLMISRTPEVTCVVVDVSHEEPEVQFNWYVDGVEVHNAKTKPREEQYNSTYRVVSVLTVLHQDWLNGKEYKCKVSNDALPMPIEETISKAKGQPREPQVYTLPPSREEMTKNQVSLTCLVKGFYPSDIAVEWESNGQPENNYKTTPPVLDSDGSFFLYSKLTVDKSRWQQGNVFSCSVMHEALHNHYTQESLSLSP
light: DIQMTQSPSSLSASVGDRVTITCRASQDIHKYIAWYQQKPGQAPRLLIQYTSTLQPGVPSRFSGSGSGTDYTFTISSLQPEDIATYYCLQYEQLRTFGGGTKVEIKRTVAAPSVFIFPPSDEQLKSGTASVVCLLNNFYPREAKVQWKVDNALQSGNSQESVTEQDSKDSTYSLSSTLTLSKADYEKHKVYACEVTHQGLSSPVTKSFNRGEC
notes: Heterodimerized anti-EREG IgG1 antibody; A chain altered from H240-AK072, B chain altered from H240-BH076
For B1, the Kd in experiment [1] is 0.17 nM; in [2] it was 250 nM; in experiment [3] it was 69 nM; in experiment [4], 1300 nM; in [5], 4.3 nM; in experiment [6], 1.1 nM.

B2: H240-FA024/H240-FB084/L73-k0 (antibody, human IgG1, kappa)
heavy 1: B1 heavy 1 with I198T, E271K, M357K
heavy 2: B1 heavy 2 with G136E, G137S, K146E, S191N, L192F, I198T, N202D, K213T, K287E, N383E
light: B1 light
notes: as for B1
For B2, the Kd amounted to 0.095 nM in experiment [7]; 250 nM in [8]; 79 nM in [9]; 1500 nM in experiment [10]; 4.6 nM in experiment [11]; 1.2 nM in experiment [12].

B3: H240-FA009/H240-FB047/L73-k0 (antibody, human IgG1, kappa)
heavy 1: B1 heavy 1
heavy 2: B1 heavy 2 with N383E
light: B1 light
notes: as for B1
For the molecule B3, the Kd amounted to 0.05 nM in experiment [1]; 270 nM in experiment [2]; 74 nM in experiment [3]; 1700 nM in experiment [4]; 4.4 nM in experiment [5]; 1.1 nM in [6].

B4: H240-FA009/H240-FB017/L73-k0 (antibody, human IgG1, kappa)
heavy 1: B1 heavy 1
heavy 2: B1 heavy 2 with G136E, N202D
light: B1 light
notes: as for B1
B4: the Kd came to 0.11 nM in experiment [1]; 230 nM in experiment [2]; 61 nM in experiment [3]; 1400 nM in [4]; 3 nM in [5]; 0.84 nM in experiment [6].

B5: H240-FA009/H240-FB052/L73-k0 (antibody, human IgG1, kappa)
heavy 1: B1 heavy 1
heavy 2: B1 heavy 2 with K213T
light: B1 light
notes: as for B1
Consider B5, for which the Kd came out at 0.051 nM in [1]; 270 nM in experiment [2]; 72 nM in experiment [3]; 1400 nM in [4]; 4.3 nM in experiment [5]; 0.89 nM in experiment [6].

B6: H240-FA009/H240-FB033/L73-k0 (antibody, human IgG1, kappa)
heavy 1: B1 heavy 1
heavy 2: B1 heavy 2 with G137E
light: B1 light
notes: as for B1
For B6, the Kd in [1] came out at 0.12 nM; in experiment [2], 310 nM; in experiment [3] it was 80 nM; in experiment [4], 1600 nM; in experiment [5] it was 3.4 nM; in experiment [6], 1 nM.

B7: H240-FA009/H240-FB016/L73-k0 (antibody, human IgG1, kappa)
heavy 1: B1 heavy 1
heavy 2: B1 heavy 2 with N202D
light: B1 light
notes: as for B1
B7: the Kd in [1] was 0.13 nM; in experiment [2] it was 250 nM; in [3] it was 70 nM; in experiment [4], 1400 nM; in experiment [5], 4.4 nM; in experiment [6] it was 1 nM.

B8: H240-FA009/H240-FB021/L73-k0 (antibody, human IgG1, kappa)
heavy 1: B1 heavy 1
heavy 2: B1 heavy 2 with K287E
light: B1 light
notes: as for B1
B8: the equilibrium dissociation constant (Kd) in experiment [1] was found to be 0.051 nM; in experiment [2], 280 nM; in experiment [3] it was 70 nM; in [4] it was 2200 nM; in [5], 3.7 nM; in experiment [6] it was 0.78 nM.

B9: H240-FA012/H240-FB001/L73-k0 (antibody, human IgG1, kappa)
heavy 1: B1 heavy 1 with E271K
heavy 2: B1 heavy 2
light: B1 light
notes: as for B1
Turning to B9, the Kd is 0.076 nM in [1]; 350 nM in [2]; 110 nM in [3]; 1700 nM in [4]; 6.3 nM in experiment [5]; 1.5 nM in [6].

B10: H240-FA009/H240-FB020/L73-k0 (antibody, human IgG1, kappa)
heavy 1: B1 heavy 1
heavy 2: B1 heavy 2 with K146E
light: B1 light
notes: as for B1
For the molecule B10, the Kd in experiment [1] was 0.12 nM; in experiment [2], 250 nM; in experiment [3] it was 64 nM; in experiment [4] it was 1400 nM; in experiment [5], 3.9 nM; in [6] it was 1.1 nM.

B11: H240-FA009/H240-FB015/L73-k0 (antibody, human IgG1, kappa)
heavy 1: B1 heavy 1
heavy 2: B1 heavy 2 with G136E
light: B1 light
notes: as for B1
Regarding B11, the Kd in experiment [1] is 0.093 nM; in [2], 330 nM; in [3], 84 nM; in experiment [4], 1800 nM; in experiment [5], 4.2 nM; in experiment [6], 1.3 nM.
